The source of these data is US20170209558A1.

The target of test [1] is Basigin (residues 22-205) (UniProt P35613). The test is described as follows: SPR, RH5ΔNL (8 to 0.0625 µM) injected over immobilized basigin, 1:1 binding model; RH5ΔNL fragment (residues 140-526 lacking 248-296). Background: In SPR one partner is held on a chip, and binding of the other changes the refractive index at the surface.
For test [2] the target is unchanged. Description: not stated; given for comparison with the SPR value of RH5ΔNL; full-length RH5 (FLRH5).

As usually defined, the Kd is the equilibrium constant for the complex coming apart. A high value points to a looser complex. The substance “RH5ΔNL (PfRH5 fragment, 7G8 strain, residues 140-526 lacking residues 248-296, C-terminal hexa-histidine tag) (from UniProt Q8IFM5 140-526) (ligand)” returned a dissociation constant Kd in test [1] of 1.3 µM. As to “full-length PfRH5 (7G8 strain), recombinant, C-terminal hexa-histidine tag (from UniProt Q8IFM5 24-526) (ligand)”, in test [2], the equilibrium dissociation constant (Kd) was determined as 1.1 µM.
